Reference: patent US20250073302A1 (PURDUE RESEARCH FOUNDATION, published 2025)
Non-standard residues stand in square brackets, D forms with d. No end group written: not given here. Bpa = N[C@@H](Cc1ccc(C(=O)c2ccccc2)cc1)C(=O)O; Phe(3-F) = N[C@@H](Cc1cccc(F)c1)C(=O)O; dPra = C#CC[C@@H](N)C(=O)O; dDap = NC[C@@H](N)C(=O)O; Dap = NC[C@H](N)C(=O)O

Assays:
Assay in all cases: cell-based or functional assay
[1] = molecular target: 20S core particle (CP) proteasome
[2] = molecular target: 20S core particle (CP) proteasome; remark: listed apart in the source
[3] = molecular target: cytosolic proteasome in HEK293 T cells

TAS-1 (percent stimulation of 20S CP) [1] | EC50, dose-response of 20S CP stimulation [2] [µM] | Emax, dose-response of 20S CP stimulation [2] | In-Cellulo (flow cytometry with epoxomicin probe, HEK293 T cells) [3] [not printed] | Binder
298 % of DMSO |  |  |  | cyclo(T[dL]F[dF]R[dS]) (SMILES CC(C)C[C@H]1NC(=O)[C@H]([C@@H](C)O)NC(=O)[C@@H](CO)NC(=O)[C@H](CCCNC(=N)N)NC(=O)[C@@H](Cc2ccccc2)NC(=O)[C@H](Cc2ccccc2)NC1=O) [CyPPS22]
212 % of DMSO |  |  |  | cyclo(T[dL]R[dF]R[dA]) (SMILES CC(C)C[C@H]1NC(=O)[C@H]([C@@H](C)O)NC(=O)[C@@H](C)NC(=O)[C@H](CCCNC(=N)N)NC(=O)[C@@H](Cc2ccccc2)NC(=O)[C@H](CCCNC(=N)N)NC1=O) [CyPPS30]
372 % of DMSO | 14.2 | 701 | 161 | cyclo(D[dL]F[dF]R[dA]) (SMILES CC(C)C[C@H]1NC(=O)[C@H](CC(=O)O)NC(=O)[C@@H](C)NC(=O)[C@H](CCCNC(=N)N)NC(=O)[C@@H](Cc2ccccc2)NC(=O)[C@H](Cc2ccccc2)NC1=O) [CyPPS8]
352 % of DMSO | 4.1 | 391 | 247 | cyclo(T[dL]F[dF]R[dDap]) (SMILES CC(C)C[C@H]1NC(=O)[C@H]([C@@H](C)O)NC(=O)[C@@H](CN)NC(=O)[C@H](CCCNC(=N)N)NC(=O)[C@@H](Cc2ccccc2)NC(=O)[C@H](Cc2ccccc2)NC1=O) [CyPPS23]
199 % of DMSO |  |  |  | cyclo(T[dL][Phe(3-F)][dF]R[dA]) (SMILES CC(C)C[C@H]1NC(=O)[C@H]([C@@H](C)O)NC(=O)[C@@H](C)NC(=O)[C@H](CCCNC(=N)N)NC(=O)[C@@H](Cc2ccccc2)NC(=O)[C@H](Cc2cccc(F)c2)NC1=O) [CyPPS31]
152 % of DMSO |  |  |  | cyclo(T[dL]L[dF]R[dA]) (SMILES CC(C)C[C@@H]1NC(=O)[C@@H](CC(C)C)NC(=O)[C@H]([C@@H](C)O)NC(=O)[C@@H](C)NC(=O)[C@H](CCCNC(=N)N)NC(=O)[C@@H](Cc2ccccc2)NC1=O) [CyPPS29]
242 % of DMSO |  |  |  | cyclo(T[dL][Bpa][dF]R[dA]) (SMILES CC(C)C[C@H]1NC(=O)[C@H]([C@@H](C)O)NC(=O)[C@@H](C)NC(=O)[C@H](CCCNC(=N)N)NC(=O)[C@@H](Cc2ccccc2)NC(=O)[C@H](Cc2ccc(C(=O)c3ccccc3)cc2)NC1=O) [CyPPS32]
310 % of DMSO |  |  |  | cyclo(V[dL]F[dF]R[dA]) (SMILES CC(C)C[C@H]1NC(=O)[C@H](C(C)C)NC(=O)[C@@H](C)NC(=O)[C@H](CCCNC(=N)N)NC(=O)[C@@H](Cc2ccccc2)NC(=O)[C@H](Cc2ccccc2)NC1=O) [CyPPS9]
275 % of DMSO |  |  |  | cyclo(T[dL]A[dF]R[dA]) (SMILES CC(C)C[C@H]1NC(=O)[C@H]([C@@H](C)O)NC(=O)[C@@H](C)NC(=O)[C@H](CCCNC(=N)N)NC(=O)[C@@H](Cc2ccccc2)NC(=O)[C@H](C)NC1=O) [CyPPS4]
305 % of DMSO |  |  |  | cyclo(T[dL]F[dF]A[dR]) (SMILES CC(C)C[C@H]1NC(=O)[C@H]([C@@H](C)O)NC(=O)[C@@H](CCCNC(=N)N)NC(=O)[C@H](C)NC(=O)[C@@H](Cc2ccccc2)NC(=O)[C@H](Cc2ccccc2)NC1=O) [CyPPS6]
297 % of DMSO |  |  |  | cyclo([dL]F[dF]K[dA]) (SMILES CC(C)C[C@H]1NC(=O)[C@@H](C)NC(=O)[C@H](CCCCN)NC(=O)[C@@H](Cc2ccccc2)NC(=O)[C@H](Cc2ccccc2)NC1=O) [CyPPS25]
109 % of DMSO |  |  |  | cyclo(TVF[dF]A[dR]) (SMILES CC(C)[C@@H]1NC(=O)[C@H]([C@@H](C)O)NC(=O)[C@@H](CCCNC(=N)N)NC(=O)[C@H](C)NC(=O)[C@@H](Cc2ccccc2)NC(=O)[C@H](Cc2ccccc2)NC1=O) [CyPPS27]
238 % of DMSO |  |  |  | cyclo(T[dL]F[dF]R[dPra]) [CyPPS33]
422 % of DMSO | 4 | 394 | 174 | cyclo(T[dV]F[dF]R[dA]) (SMILES CC(C)[C@H]1NC(=O)[C@H]([C@@H](C)O)NC(=O)[C@@H](C)NC(=O)[C@H](CCCNC(=N)N)NC(=O)[C@@H](Cc2ccccc2)NC(=O)[C@H](Cc2ccccc2)NC1=O) [CyPPS13]
388 % of DMSO | 12.1 | 514 | 231 | cyclo(T[dPra]F[dF]R[dA]) (SMILES C#CC[C@H]1NC(=O)[C@H]([C@@H](C)O)NC(=O)[C@@H](C)NC(=O)[C@H](CCCNC(=N)N)NC(=O)[C@@H](Cc2ccccc2)NC(=O)[C@H](Cc2ccccc2)NC1=O) [CyPPS14]
289 % of DMSO |  |  |  | cyclo(T[dV]F[dF]A[dR]) (SMILES CC(C)[C@H]1NC(=O)[C@H]([C@@H](C)O)NC(=O)[C@@H](CCCNC(=N)N)NC(=O)[C@H](C)NC(=O)[C@@H](Cc2ccccc2)NC(=O)[C@H](Cc2ccccc2)NC1=O) [CyPPS28]
259 % of DMSO |  |  |  | cyclo(T[dA]F[dF]A[dR]) (SMILES C[C@@H]1NC(=O)[C@@H](Cc2ccccc2)NC(=O)[C@H](Cc2ccccc2)NC(=O)[C@@H](C)NC(=O)[C@H]([C@@H](C)O)NC(=O)[C@@H](CCCNC(=N)N)NC1=O) [CyPPS35]
126 % of DMSO |  |  | 83.7 | TLFFRA (also: linear version of CyPPS1, D-residues not given here) [PPS1]
226 % of DMSO |  |  |  | cyclo(K[dL]F[dF]R[dA]) (SMILES CC(C)C[C@H]1NC(=O)[C@H](CCCCN)NC(=O)[C@@H](C)NC(=O)[C@H](CCCNC(=N)N)NC(=O)[C@@H](Cc2ccccc2)NC(=O)[C@H](Cc2ccccc2)NC1=O) [CyPPS7]
370 % of DMSO |  |  |  | cyclo(T[dL]F[dF][Dap][dR]) (also: AA5 described as D-Dap in one passage, DAP in another) [CyPPS24]
126 % of DMSO |  |  |  | cyclo(TAF[dF]A[dR]) (SMILES C[C@@H]1NC(=O)[C@H]([C@@H](C)O)NC(=O)[C@@H](CCCNC(=N)N)NC(=O)[C@H](C)NC(=O)[C@@H](Cc2ccccc2)NC(=O)[C@H](Cc2ccccc2)NC1=O) [CyPPS34]
170 % of DMSO |  |  |  | cyclo(T[dL]F[dA]R[dA]) (SMILES CC(C)C[C@H]1NC(=O)[C@H]([C@@H](C)O)NC(=O)[C@@H](C)NC(=O)[C@H](CCCNC(=N)N)NC(=O)[C@@H](C)NC(=O)[C@H](Cc2ccccc2)NC1=O) [CyPPS5]
178 % of DMSO |  |  |  | cyclo(T[dA]F[dF]R[dA]) (SMILES C[C@H]1NC(=O)[C@H](CCCNC(=N)N)NC(=O)[C@@H](Cc2ccccc2)NC(=O)[C@H](Cc2ccccc2)NC(=O)[C@@H](C)NC(=O)[C@H]([C@@H](C)O)NC1=O) [CyPPS3]
185 % of DMSO |  |  |  | cyclo(A[dA]F[dF]A[dR]) (SMILES C[C@@H]1NC(=O)[C@@H](CCCNC(=N)N)NC(=O)[C@H](C)NC(=O)[C@@H](Cc2ccccc2)NC(=O)[C@H](Cc2ccccc2)NC(=O)[C@@H](C)NC1=O) [CyPPS36]
340 % of DMSO | 6.4 | 283 | 235 | cyclo(T[dL]F[dF]R[dA]) (SMILES CC(C)C[C@H]1NC(=O)[C@H]([C@@H](C)O)NC(=O)[C@@H](C)NC(=O)[C@H](CCCNC(=N)N)NC(=O)[C@@H](Cc2ccccc2)NC(=O)[C@H](Cc2ccccc2)NC1=O) [CyPPS1]
